A word on the IC50: it is the concentration that inhibits the measured activity by half. Lower therefore signals higher potency. In general, % inhibition refers to the relative decrease from the control value, in per cent. A high value points to a response far below the control.

Sequences and labels used below:
B1: MoLoop2HuIL-4Rα (receptor)
chain: MKVLQEPTCVSDYMSISTCEWKMNGPTNCSTELRLLYQLMFFEFSENLTCIPENNGGAGCVCHLLMDDVVSADNYTLDLWAGQQLLWKGSFKPSEHVKPRAPGNLTVHTNVSDTLLLTWSNPYPPDNYLYNHLTYAVNIWSENDPADFRIYNVTYLEPSLRIAASTLKSGISYRARVRAWAQCYNTTWSEWSPSTKWHNSYREPFDYKDDDDKAAHHHHHHHHHH
B2: EM18 (receptor)
chain: B1 chain with M40V
B3: EM23 (receptor)
chain: B1 chain with L48H
B4: EM04 (receptor)
chain: MKVLQEPTCVSDYMSISTCEWKMNGPTNCSTELRLLYQLVFLLSEAHTCIPENNGGAGCVCHLLMDDPVSADNYTLDLWAGQQLLWKGSFKPSEHVKPRAPGNLTVHTNVSDTLLLTWSNPYPPDNYLYNHLTYAVNIWSENDPADFRIYNVTYLEPSLRIAASTLKSGISYRARVRAWAQCYNTTWSEWSPSTKWHNSYREPFNPAFLYKVVGAADYKDDDDKAAHHHHHHHHHH
B5: MoLoop3HuIL-4Rα (receptor)
chain: MKVLQEPTCVSDYMSISTCEWKMNGPTNCSTELRLLYQLVFLLSEAHTCIPENNGGAGCVCHLEMNRPVQSDRYTLDLWAGQQLLWKGSFKPSEHVKPRAPGNLTVHTNVSDTLLLTWSNPYPPDNYLYNHLTYAVNIWSENDPADFRIYNVTYLEPSLRIAASTLKSGISYRARVRAWAQCYNTTWSEWSPSTKWHNSYREPFDYKDDDDKAAHHHHHHHHHH
B6: EM01 (receptor)
chain: B4 chain with L64E, P68V
B7: EM07 (receptor)
chain: B4 chain with P68V, N73R
B8: EM03 (receptor)
chain: B4 chain with D67R, P68V
B9: EM06 (receptor)
chain: B4 chain with P68V, A71S
B10: EM05 (receptor)
chain: B4 chain with P68V, S70Q
B11: EM02 (receptor)
chain: B4 chain with D66N, P68V
B12: AllMoLoopsHuIL-4Rα (receptor)
chain: MKVLQEPTCVSDYIRTSTCEWKMNGPTNCSTELRLLYQLMFFEFSENLTCIPENNGGAGCVCHLEMNRPVQSDRYTLDLWAGQQLLWKGSFKPSEHVKPRAPGNLTVHTNVSDTLLLTWNNLYPSNNYLYNHLTYAVNIWSENDPADFRIYNVTYLEPSLRIAASTLKSGISYRARVRAWSQILTGTWSEWSPSTKWHNSYREPFDYKDDDDKAAHHHHHHHHHH
B13: HuD1MoD2IL-4Rα (receptor)
chain: MKVLQEPTCVSDYMSISTCEWKMNGPTNCSTELRLLYQLVFLLSEAHTCIPENNGGAGCVCHLLMDDVVSADNYTLDLWAGQQLLWKGSFKPSENVKPLAPDNLTLHTNVSDEWLLTWNNLYPSNNLLYKDLISMVNISREDNPAEFIVYNVTYKEPRLSFPINILMSGVYYTARVRVRSQILTGTWSEWSPSITWYNHFQLPLDYKDDDDKAAHHHHHHHHHH
B14: MoIL-4Rα (receptor)
chain: IKVLGEPTCFSDYIRTSTCEWFLDSAVDCSSQLCLHYRLMFFEFSENLTCIPRNSASTVCVCHMEMNRPVQSDRYQMELWAEHRQLWQGSFSPSGNVKPLAPDNLTLHTNVSDEWLLTWNNLYPSNNLLYKDLISMVNISREDNPAEFIVYNVTYKEPRLSFPINILMSGVYYTARVRVRSQILTGTWSEWSPSITWYNHFQLPLNPAFLYKVVGAADYKDDDDKAAHHHHHHHHHH
B15: MoD1HuD2IL-4Rα (receptor)
chain: IKVLGEPTCFSDYIRTSTCEWFLDSAVDCSSQLCLHYRLMFFEFSENLTCIPRNSASTVCVCHMEMNRPVQSDRYQMELWAEHRQLWQGSFSPSGHVKPRAPGNLTVHTNVSDTLLLTWSNPYPPDNYLYNHLTYAVNIWSENDPADFRIYNVTYLEPSLRIAASTLKSGISYRARVRAWAQCYNTTWSEWSPSTKWHNSYREPFDYKDDDDKAAHHHHHHHHHH

Where a chain is given by its changes, count along the chain named.

The target of the first experiment is antibody tested in the epitope mapping of Example 5. As to the kind of experiment: HTRF competition, test protein against biotinylated human IL-4Rα/Fc for cryptate labelled antibody. A general note: Time-resolved FRET reads energy transfer from a long-lived donor to a nearby acceptor.
Consider B1, for which the IC50 was 25 nM. On the same count and under the same terms, for B2 the value was 20 nM; for B3, 56 nM.

The next experiment has the same target. As to the kind of experiment: HTRF competition.
Consider B1, for which the fold higher IC50 than human IL-4Rα stood at 100 fold. B4 registered a fold higher IC50 than human IL-4Rα of 20 fold.

The next experiment shares this target. As to the kind of experiment: HTRF competition, test protein against biotinylated human IL-4Rα/Fc for cryptate labelled antibody. The source holds these as a separate data set.
Take B5: the % inhibition at the highest concentration (1000 nM) is 45%. For B6, the IC50 was found to be 0.71 nM.

B7 gave a half-maximal inhibitory concentration (IC50) of 1.41 nM. Same read-out and setting: for B4 the value was 15 nM. In turn, B8 displayed a % inhibition at the highest concentration (1000 nM) of 29%.

Molecule B9 showed a 50% inhibitory concentration (IC50) of 3.25 nM. Still for that read-out and setting: with B10 the figure was 1.65 nM; with B11, 2.25 nM.

The target is the same in the next experiment. Described as above. This is another data set of the same source.
B1: the IC50 came out at 23 nM. Take B5: the % inhibition at the highest concentration (1000 nM) was 58%. The same measure, in the same setting: for B12 the value was 41%. In the case of B13, the half-maximal inhibitory concentration (IC50) was found to be 3.4 nM. For B14, the % inhibition at the highest concentration (1000 nM) was determined as 45%.

B15: the % inhibition at the highest concentration (1000 nM) worked out at 34%.
